Reference: patent US20240002500A1 (GUANGDONG FAPON BIOPHARMA, published 2024)

Target: T1, full-length human TIGIT on cells (human, UniProt Q495A1 22-244)
T1 construct: whole, on cells; The same protein is used for CHO-hTIGIT, PBMC and NK92-hTIGIT; the cells are named under assay; also called CHO-hTIGIT; hTIGIT
T1 sequence (looked up): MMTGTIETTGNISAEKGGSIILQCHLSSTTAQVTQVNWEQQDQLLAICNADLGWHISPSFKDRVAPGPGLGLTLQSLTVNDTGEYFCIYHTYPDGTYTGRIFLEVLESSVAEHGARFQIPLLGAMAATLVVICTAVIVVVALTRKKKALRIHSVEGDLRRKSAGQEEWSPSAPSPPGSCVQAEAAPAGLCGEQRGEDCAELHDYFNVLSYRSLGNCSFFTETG
Assay: FACS titration on PBMC of healthy people (natural TIGIT); unit taken from the x axis Log[µg/mL]; the curve still rises at the highest concentration (MFI about 11000 at log 1), no plateau, the fitted value lies outside the range shown
Description: In order to verify that the prepared anti-human TIGIT antibody may effectively bind to naturally expressed TIGIT, the following experiments were specifically performed. PBMC cells in healthy people to be detected were counted, centrifuged at 300 g for 5 min, resuspended with an FCM buffer; and cell density was adjusted to 4E+06 cell/mL for later use. Samples to be detected (including a positive control antibody and a mouse monoclonal antibody) were diluted with the FCM buffer to 20 μg/mL, and then the FCM buffer was used to perform 3× serial dilutions of 12 concentration points; and the isotype control antibody was diluted with the FCM buffer to 20 μg/mL. According to an experimental design, in each well, 50 μL of the antibody and 50 μL of the cell (the volume of each cell added into a 96-well V-shaped plate being 2E+05 cell/well) were respectively added in the 96-well V-shaped plate; and incubation was performed in dark on ice for 30 min. Centrifugation (300 g/5 min) was performed; supernatant was discarded; 200 μL of the FCM buffer was added for washing once; centrifugation (300 g/5 min) was performed; and the supernatant was discarded. […] Centrifugation (300 g/5 min) was performed; supernatant was discarded; 200 μL of the FCM buffer was added for washing once; centrifugation (300 g/5 min) was performed; and the supernatant was discarded. […]

B1: Tigit-5 mouse monoclonal antibody (antibody, V domains shown)
VH: QVQLQQPGAELVRPGASVKLSCKASGYSFTSYWMNWVKQRPGQGLEWIGMIRPSDSETRLNQMFKDKATLTVDKSSSTAYMQLSSPTSDDSAVYYCAGIHDYGHGAYWGQGTLVTVSA
VL: DIQMIQSPASLSVSVGETVTITCRASENIYSNLAWYQQKQGKSPQLLVYAASHLPDGVPSRFSGSGSGTQYSLKINSLQSEDFGSYYCQHFWGTPRTFGGGTKLEIKR
notes: Mouse monoclonal antibody from hybridoma
Q: With B1 as the binder, how does the EC50 read?
A: ~310 µg/mL
